Data reported in paper PMC11268095.

What was measured:
Assay in all cases: BLI; BLItz, Ni-NTA biosensor; phospho-His-SrcKD or variant (58 μM, 5 μL) immobilised as bait for 3 min; rPTPεD1 or variant as analyte, association 120 s, dissociation 120 s; 20 mM Tris-HCl pH 7.5, 50 mM NaCl, 5 mM DTT; 100 μM ATP and 1 μM CSK added before every immobilisation; global fit
[1] = target: phospho-His-SrcKD (phosphorylated His-tagged Src kinase domain, Trp 260-Leu 533, K295M/Y416F) (UniProt P00523)
[2] = target: phospho-His-SrcKD-D518K (phosphorylated His-tagged Src kinase domain, Trp 260-Leu 533, K295M/Y416F and a change at 518) (UniProt P00523)
[3] = target: phospho-His-SrcKD-E486A (phosphorylated His-tagged Src kinase domain, Trp 260-Leu 533, K295M/Y416F/E486A) (UniProt P00523)

Row | Kd [1] [µM] | koff [1] [s⁻¹] | kon [1] [M⁻¹ s⁻¹] | Kd [2] [µM] | koff [2] [s⁻¹] | kon [2] [M⁻¹ s⁻¹] | Kd [3] [µM] | koff [3] [s⁻¹] | kon [3] [M⁻¹ s⁻¹] | Substance
1 | 26.2 | 0.0284 | 1080 | 184 | 0.0661 | 360 | 80.4 | 0.0476 | 592 | rPTPεD1 (D1 domain of rPTP epsilon, Ser 101-Thr 400, C335A) (domain or fragment)
2 | 352 | 0.0853 | 242 | – | – | – | – | – | – | rPTPεD1-K237D (D1 domain of rPTP epsilon, Ser 101-Thr 400, C335A/K237D) (domain or fragment)
3 | 168 | 0.0341 | 202 | – | – | – | – | – | – | rPTPεD1-R220E (D1 domain of rPTP epsilon, Ser 101-Thr 400, C335A/R220E) (domain or fragment)
